Measured values from paper PMC3401474.

B1: B1 (XNA)
RNA: GGGAGGACGAUGCGGUCUGUUGUGCUUGAUAUGCCCCAGACGACUCGCCCGA
modifications: 2'-fluoro C and U (2'-OH A and G)
B2: C1 (XNA)
RNA: GGGAGGACGAUGCGGCUGUCUACCUUCUACUGCCGCAGACGACUCGCCCGA
modifications: 2'-fluoro C and U (2'-OH A and G)
B3: E1 (XNA)
RNA: GGGAGGACGAUGCGGUCCUGUCGUCUGUUCGUCCCCAGACGACUCGCCCGA
modifications: 2'-fluoro C and U (2'-OH A and G)

Assays:
Assay in all cases: SPR
rat HER2 (rHER2) = rat HER2 (rHER2) (rat, UniProt P06494 23-654)
human HER2 (hHER2) = human HER2 (hHER2) (human, UniProt P04626 23-652)
human EphA2 (hEphA2) = human EphA2 (hEphA2) (human, UniProt P29317 24-537)
human EphA2 (hEphA2), sequence (P29317 24-537): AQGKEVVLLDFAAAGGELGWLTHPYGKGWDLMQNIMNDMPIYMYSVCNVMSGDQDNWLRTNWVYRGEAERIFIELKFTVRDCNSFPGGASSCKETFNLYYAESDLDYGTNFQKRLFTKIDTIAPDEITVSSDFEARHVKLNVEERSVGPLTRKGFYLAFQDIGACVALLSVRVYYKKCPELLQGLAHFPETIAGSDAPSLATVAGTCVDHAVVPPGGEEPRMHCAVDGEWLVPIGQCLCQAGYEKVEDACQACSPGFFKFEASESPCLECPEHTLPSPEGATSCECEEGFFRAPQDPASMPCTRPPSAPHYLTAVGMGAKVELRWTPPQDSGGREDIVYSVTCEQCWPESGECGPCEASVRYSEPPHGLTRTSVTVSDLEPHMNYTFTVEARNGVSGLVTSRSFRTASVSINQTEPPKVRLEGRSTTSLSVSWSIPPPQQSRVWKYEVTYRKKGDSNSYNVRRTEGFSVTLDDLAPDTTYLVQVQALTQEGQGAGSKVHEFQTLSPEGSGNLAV

rat HER2 (rHER2), sequence (P06494 23-654): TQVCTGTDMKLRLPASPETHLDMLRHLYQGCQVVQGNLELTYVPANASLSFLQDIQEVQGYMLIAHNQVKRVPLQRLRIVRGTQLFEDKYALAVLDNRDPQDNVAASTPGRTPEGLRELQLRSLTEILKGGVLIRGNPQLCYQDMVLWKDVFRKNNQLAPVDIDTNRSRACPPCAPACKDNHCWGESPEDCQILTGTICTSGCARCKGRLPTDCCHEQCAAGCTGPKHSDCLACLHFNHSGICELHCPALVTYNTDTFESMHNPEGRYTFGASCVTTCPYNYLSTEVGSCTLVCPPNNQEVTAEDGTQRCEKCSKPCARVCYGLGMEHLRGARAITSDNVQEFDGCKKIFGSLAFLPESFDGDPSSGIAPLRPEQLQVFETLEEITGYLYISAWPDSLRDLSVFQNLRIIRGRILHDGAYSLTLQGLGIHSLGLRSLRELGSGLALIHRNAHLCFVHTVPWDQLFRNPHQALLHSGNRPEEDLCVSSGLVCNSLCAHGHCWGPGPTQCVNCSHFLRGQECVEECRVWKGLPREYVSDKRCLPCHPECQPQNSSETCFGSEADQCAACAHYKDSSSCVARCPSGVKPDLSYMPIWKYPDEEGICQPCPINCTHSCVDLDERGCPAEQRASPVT

| Binder | Kd (rat HER2 (rHER2)) [nM] | binding result (human HER2 (hHER2)) | binding result (human EphA2 (hEphA2)) |
| --- | --- | --- | --- |
| B1 | 85.2 | no binding | no binding |
| B2 | 45.8 | no binding | no binding |
| B3 | 60.8 | – | – |
